{"source": "paper PMC3277882", "about": "“Structure and Kinetic Stability of the p63 Tetramerization Domain” (Journal of Molecular Biology, 2012)", "molecules": {"B1": {"name": "human p73 full-length tetramerization domain variant, p73(351–399) (domain or fragment)", "chain": "GSDEDTYYLQVRGRENFEILMKLKESLELMELVPQPLVDSYRQQQQLLQRP", "notes": "Gly-Ser dipeptide left at the N terminus by the cloning strategy (after thrombin cleavage); human p73 tetramerization domain, residues 351-399; In the subunit exchange experiment an unlabeled (12C-14N) and a uniformly 13C-15N labeled sample of the same construct were mixed; also called p73 tetramerization domain; not shown: His6, N-terminal, cleaved; lipoyl domain, N-terminal, cleaved"}}, "key": {"[1]": {"target": "human p63 full-length tetramerization domain variant, p63(356–411) (human)", "test": "native MS; nESI-MS of subunit exchange: equal amounts of 12C-14N and 13C-15N protein mixed, 10 μM each (monomer concentration), 500 mM ammonium acetate (pH 6.9), 37 °C; half-life of tetramer dissociation from kinetic modeling"}, "[2]": {"target": "human p63 tetramerization domain lacking the H2 helix, p63(359–388) (human)", "test": "crystal structure; p63(359–388) SeMet, sitting drop at 17 °C, 30% polyethylene glycol 400, 0.1 M Hepes (pH 7.5), 0.2 M Mg chloride; space group P1, one tetramer in the asymmetric unit; 1.9 Å"}, "[3]": {"target": "human p63 tetramerization domain, p63(359–402) (human)", "test": "crystal structure; p63(359–402), sitting drop at 17 °C, 10% polyethylene glycol 8000, 0.1 M Hepes (pH 7.5), 0.2 M Ca acetate; space group P422, one monomer in the asymmetric unit; 2.15 Å"}, "[4]": {"target": "the molecule itself", "test": "native MS; nESI-MS of subunit exchange: equal amounts of 12C-14N and 13C-15N protein mixed, 10 μM each (monomer concentration), 500 mM ammonium acetate (pH 6.9), 37 °C; half-life of tetramer dissociation from kinetic modeling"}, "[5]": {"target": "the molecule itself", "test": "native MS; nESI-MS of subunit exchange: equal amounts of 12C-14N and 13C-15N protein mixed, 10 μM each (monomer concentration), 500 mM ammonium acetate (pH 6.9), 37 °C; half-life of tetramer dissociation from kinetic modeling", "remark": "listed apart in the source"}}, "data": [{"molecule": "human p63 full-length tetramerization domain variant, p63(356–411) (domain or fragment)", "values": [{"measurement": "half-life of the tetramer, t1/2", "setting": "[1]", "value": 7, "unit": "min"}, {"measurement": "stoichiometry N", "setting": "[1]", "value": 4}]}, {"molecule": "human p63 tetramerization domain lacking the H2 helix, p63(359–388) (domain or fragment)", "values": [{"measurement": "stoichiometry N", "setting": "[2]", "value": 4}]}, {"molecule": "human p63 tetramerization domain, p63(359–402) (domain or fragment)", "values": [{"measurement": "stoichiometry N", "setting": "[3]", "value": 4}]}, {"molecule": "B1", "values": [{"measurement": "half-life of the tetramer, t1/2", "setting": "[4]", "value": "77 ± 5", "unit": "min"}, {"measurement": "stoichiometry N", "setting": "[5]", "value": 4}]}]}
